From patent US20030120051A1 (SUGEN, published 2003) come the findings set out here.

This test concerns the target T1, rat contactin (clone F8; p140 of GH3 cells) (rat, UniProt Q63198 21-1001, GPI-anchored).
T1 construct: whole, on cells; On transfected COS7 cells, on GH3 cells, in solubilized GH3 membranes or in rat brain membranes, as the entry says; also called rat homologue of contactin; F3/F11
T1 sequence (looked up): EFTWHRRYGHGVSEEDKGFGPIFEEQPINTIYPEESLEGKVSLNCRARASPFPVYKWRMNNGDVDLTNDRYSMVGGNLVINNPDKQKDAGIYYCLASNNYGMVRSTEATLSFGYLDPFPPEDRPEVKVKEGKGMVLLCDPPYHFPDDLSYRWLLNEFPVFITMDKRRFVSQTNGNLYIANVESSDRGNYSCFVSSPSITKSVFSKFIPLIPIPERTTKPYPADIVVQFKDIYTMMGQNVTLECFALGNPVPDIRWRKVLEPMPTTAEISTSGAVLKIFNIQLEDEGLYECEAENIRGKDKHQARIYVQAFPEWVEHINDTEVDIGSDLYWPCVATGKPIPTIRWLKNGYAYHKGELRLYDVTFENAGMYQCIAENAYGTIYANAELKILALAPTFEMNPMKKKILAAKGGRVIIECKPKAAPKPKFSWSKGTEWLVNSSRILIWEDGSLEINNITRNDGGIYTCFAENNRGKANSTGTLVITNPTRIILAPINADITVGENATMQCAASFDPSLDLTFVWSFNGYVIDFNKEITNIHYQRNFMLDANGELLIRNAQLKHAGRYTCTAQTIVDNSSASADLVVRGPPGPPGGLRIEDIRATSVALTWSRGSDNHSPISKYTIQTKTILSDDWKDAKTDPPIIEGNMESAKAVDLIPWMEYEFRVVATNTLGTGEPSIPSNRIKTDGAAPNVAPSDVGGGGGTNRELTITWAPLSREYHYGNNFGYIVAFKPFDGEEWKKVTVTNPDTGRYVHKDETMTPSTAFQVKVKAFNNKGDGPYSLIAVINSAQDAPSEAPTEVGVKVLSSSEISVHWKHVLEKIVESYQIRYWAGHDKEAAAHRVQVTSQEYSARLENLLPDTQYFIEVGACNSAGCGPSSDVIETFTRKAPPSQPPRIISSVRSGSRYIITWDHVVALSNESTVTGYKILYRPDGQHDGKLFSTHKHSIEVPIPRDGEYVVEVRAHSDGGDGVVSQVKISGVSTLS
Kind of test: cross-linking (DTSSP) on GH3 cells, protein A precipitation, SDS-PAGE. As for the experimental part: Cells were incubated for four hours with medium containing, the different Fc-fusion proteins. Following three washes with cold PBS/Ca (1 mM CaCl₂ in PBS), the cells were incubated for additional 30 minutes with PBS/Ca containing 1 mM DTSSP (3,3′-Dithiobis[sulfosuccinimidyl--propionate], Pierce, Rockford, Ill.). Free cross-linker was removed by additional PBS wash followed by quenching with 100 mM glycine in TBS for 10 minutes at 4° C. Cell lysates were made in SBN lysis buffer (Peles et al., 1991, EMBO J., 10:2077-2086), and Sepharose-protein A was added to the cleared lysates. Following two hours incubation at 4° C., the beads were washed three times with HNTG buffer (Peles et al., 1991, EMBO J., 10:2077-2086), and the bound proteins were eluted by adding SDS PAGE sample buffer containing 5% β-mercaptoethanol and further incubation for 10 minutes at 95° C.
To characterize ligands for RPTPβ, a reversible cross-linker ([…]) was used, and proteins were sought that specifically bound to βC-Fc. Two of the cell lines that bound βC-Fc (IMR32 and GH3), as well as COS7 cells as a control, were allowed to react with the fusion proteins containing the FNIII or the CAH domains followed by cross-linking and precipitation of the complexes. […] No reactivity was detected in control cells or in cells incubated with βF-Fc. […]

B1: βF-Fc (FNIII domain of RPTPβ fused to human IgG1-Fc) (Fc fusion)
chain: not shown
notes: domain: FNIII; also called the FNIII domain alone; fibronectin domain alone; not shown: human IgG1 Fc (vector pCNγ1)
As to B1, the binding result was “no binding”.
